Molecular target: N-terminal SmBiT-tagged SETD1A FLOS domain fragment (Sm-FO3)
Experiment: split-NanoLuciferase-complementation assay with non-tagged competitor
Conditions: Sm-FO3 + N200-Lg with non-tagged competitor construct; parent: est. 3.6; read off a plot

- response: 7.6 RLU, x10^5
Substance: non-tagged BOD1L Shg1 fragment N200 (competitor) (from UniProt Q8NFC6) W104A

Source: publication PMC11381347
